In paper PMC10663520, “Qa-SNARE syntaxin 18 mediates lipid droplet fusion with SNAP23 and SEC22B” (Cell Discovery, 2023):

T1: GST-Flag-STX18 (full-length) (UniProt Q9P2W9 1-335)
T1 construct: syntaxin 18 (STX18), full length, in pGEX-4T-1 with GST-TEV-3xFLAG at the N-terminus; C-terminus printed as 331-DWYDS-335; The methods describe only the TEV-cleaved preparation; also called GST-STX18; GST-Flag-tagged STX18; source: E. coli BL21 (C43), purified (Glutathione Sepharose 4B); not shown: GST, N-terminal, kept; 3xFLAG, N-terminal, kept
T1 sequence (looked up): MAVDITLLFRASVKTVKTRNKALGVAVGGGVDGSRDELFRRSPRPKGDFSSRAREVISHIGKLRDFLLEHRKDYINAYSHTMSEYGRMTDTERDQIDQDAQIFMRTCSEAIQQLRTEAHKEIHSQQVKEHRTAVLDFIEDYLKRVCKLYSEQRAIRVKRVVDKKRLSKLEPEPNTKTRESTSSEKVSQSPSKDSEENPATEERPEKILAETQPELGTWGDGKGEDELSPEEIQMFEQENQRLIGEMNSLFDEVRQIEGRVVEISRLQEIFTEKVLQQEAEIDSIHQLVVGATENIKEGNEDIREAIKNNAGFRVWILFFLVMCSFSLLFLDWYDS

B1: SEC22B-SNARE (134-194), individually purified (domain or fragment, UniProt O75396 134-194, looked up)
chain: NLGSINTELQDVQRIMVANIEEVLQRGEALSALDSKANNLSSLSKKYRQDAKYLNMRSTYA
notes: SEC22B, SNARE domain, residues 134-194, in pET28 with 6xHis at the N-terminus
B2: SEC22B (full-length, purified) (natural protein, UniProt O75396 1-215, looked up)
chain: MVLLTMIARVADGLPLAASMQEDEQSGRDLQQYQSQAKQLFRKLNEQSPTRCTLEAGAMTFHYIIEQGVCYLVLCEAAFPKKLAFAYLEDLHSEFDEQHGKKVPTVSRPYSFIEFDTFIQKTKKLYIDSRARRNLGSINTELQDVQRIMVANIEEVLQRGEALSALDSKANNLSSLSKKYRQDAKYLNMRSTYAKLAAVAVFFIMLIVYVRFWWL
notes: SEC22B, full length, in pGEX with N-terminal GST and a TEV site after it; C-terminus printed as 212-FWWL-215; The uncleaved form is called GST-Flag-SEC22B in the pull-down methods; if a FLAG follows the TEV site it would remain here; also called purified SEC22B; source: E. coli BL21 (C43), purified (Glutathione Sepharose 4B, TEV on beads); not shown: GST, N-terminal, cleaved
B3: STX18-SNARE (243-305), individually purified (domain or fragment, UniProt Q9P2W9 243-305, looked up)
chain: IGEMNSLFDEVRQIEGRVVEISRLQEIFTEKVLQQEAEIDSIHQLVVGATENIKEGNEDIREA
notes: syntaxin 18 (STX18), SNARE domain, residues 243-305, in pGEX-4T-1 with GST-TEV-FLAG at the N-terminus; The TEV site lies between GST and FLAG, so the FLAG tag should remain after cleavage (surmised); source: E. coli BL21 (DE3), purified (Glutathione Sepharose 4B, TEV on beads, Superdex 75); not shown: GST, N-terminal, cleaved
B4: SNAP23 (full-length, purified) (natural protein, UniProt O00161 1-211, looked up)
chain: MDNLSSEEIQQRAHQITDESLESTRRILGLAIESQDAGIKTITMLDEQKEQLNRIEEGLDQINKDMRETEKTLTELNKCCGLCVCPCNRTKNFESGKAYKTTWGDGGENSPCNVVSKQPGPVTNGQLQQPTTGAASGGYIKRITNDAREDEMEENLTQVGSILGNLKDMALNIGNEIDAQNPQIKRITDKADTNRDRIDIANARAKKLIDS
notes: SNAP23, full length, in pGEX with N-terminal GST and a TEV site after it; The uncleaved form is called GST-Flag-SNAP23 in the pull-down methods; if a FLAG follows the TEV site it would remain here; also called purified SNAP23; source: E. coli BL21 (DE3), purified (Glutathione Sepharose 4B, TEV on beads); not shown: GST, N-terminal, cleaved
B5: GST-Flag-SNAP23 (natural protein, UniProt O00161 1-211, looked up)
chain: B4 chain
notes: SNAP23, full length, in pGEX with N-terminal GST and a TEV site after it; The cloning paragraph names no FLAG tag for this construct; the pull-down methods and legends call it GST-Flag-SNAP23; also called GST-SNAP23; GST-Flag-tagged SNAP23; source: E. coli BL21 (DE3), purified (Glutathione Sepharose 4B); not shown: GST, N-terminal, kept

Key:
Conditions in all cases: both partners purified
[1] = biological target: B4; assay: SEC; individually purified SNAP23, STX18-SNARE and SEC22B-SNARE, alone or as an in vitro incubated mixture of the three, on Superdex75 10/300 GL; SDS-PAGE of fractions
[2] = biological target: T1, GST-Flag-STX18 (full-length); assay: pull-down; GST-Flag-tagged bait on GST agarose beads, 4 °C 1 h; 20 mM HEPES pH 7.4, 300 mM NaCl, 1 mM EDTA, 1% OG, 0.1% FOS-Choline-12; purified SEC22B (54.7 μM, 20 μL) or SNAP23 (280 μM, 5 μL) added; immunoblot and Coomassie
[3] = biological target: B2; assay: as above

binding result [1]	binding result [2]	Binder	further results
binds	–	B1	–
–	binds	B2	–
binds	–	B3	–
–	binds	B4	–
–	–	B5	binding result [3]: binds
